From patent US20180371492A1 (WAYNE STATE UNIVERSITY, published 2018)

Target: T1, purified androgen receptor (AR) (human, UniProt P10275 1-920, limits assumed)
T1 construct: also called purified AR
T1 sequence: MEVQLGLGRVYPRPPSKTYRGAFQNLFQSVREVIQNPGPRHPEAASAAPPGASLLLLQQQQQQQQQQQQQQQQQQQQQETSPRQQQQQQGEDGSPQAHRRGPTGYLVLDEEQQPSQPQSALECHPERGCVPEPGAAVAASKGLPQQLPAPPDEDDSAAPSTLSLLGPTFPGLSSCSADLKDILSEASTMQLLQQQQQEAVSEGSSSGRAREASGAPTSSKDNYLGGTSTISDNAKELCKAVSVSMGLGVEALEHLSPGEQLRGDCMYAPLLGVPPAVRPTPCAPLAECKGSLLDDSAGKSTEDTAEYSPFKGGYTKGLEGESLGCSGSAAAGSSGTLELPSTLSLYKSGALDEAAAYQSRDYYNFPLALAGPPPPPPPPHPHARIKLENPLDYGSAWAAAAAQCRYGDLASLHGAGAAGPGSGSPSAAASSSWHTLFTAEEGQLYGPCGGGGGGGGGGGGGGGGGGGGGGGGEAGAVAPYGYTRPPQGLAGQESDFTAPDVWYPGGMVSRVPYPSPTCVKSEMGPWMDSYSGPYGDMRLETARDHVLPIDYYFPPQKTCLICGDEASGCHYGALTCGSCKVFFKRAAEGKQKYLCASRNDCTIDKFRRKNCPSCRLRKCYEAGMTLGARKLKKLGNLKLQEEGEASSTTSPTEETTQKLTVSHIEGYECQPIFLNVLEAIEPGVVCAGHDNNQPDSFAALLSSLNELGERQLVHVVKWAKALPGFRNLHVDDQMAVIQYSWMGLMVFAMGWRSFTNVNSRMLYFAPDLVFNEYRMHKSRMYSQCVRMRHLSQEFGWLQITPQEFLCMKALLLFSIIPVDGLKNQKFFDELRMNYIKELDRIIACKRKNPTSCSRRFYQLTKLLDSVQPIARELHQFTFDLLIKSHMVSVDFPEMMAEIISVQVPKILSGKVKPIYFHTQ
Test: SPR, purified proteins

B1: ELK1 (ETS transcription factor (ELK1), transcript variant 1) (other)
chain: MDPSVTLWQFLLQLLREQGNGHIISWTSRDGGEFKLVDAEEVARLWGLRKNKTNMNYDKLSRALRYYYDKNIIRKVSGQKFVYKFVSYPEVAGCSTEDCPPQPEVSVTSTMPNVAPAAIHAAPGDTVSGKPGTPKGAGMAGPGGLARSSRNEYMRSGLYSTFTIQSLQPQPPPHPRPAVVLPNAAPAGAAAPPSGSRSTSPSPLEACLEAEEAGLPLQVILTPPEAPNLKSEELNVEPGLGRALPPEVKVEGPKEELEVAGERGFVPETTKAEPEVPPQEGVPARLPAVVMDTAGQAGGHAASSPEISQPQKGRKPRDLELPLSPSLLGGPGPERTPGSGSGSGLQAPGPALTPSLLPTHTLTPVLLTPSSLPPSIHFWSTLSPIAPRSPAKLSFQFPSSGSAQVHIPSISVDGLSTPVVLSPGPQKP
notes: also called purified ELK1; ELK1 polypeptide
B1 was tested, and the Kd was 19 nM.
